Cooperativity factor α with fusicoccin-A and Kd data for 1 substance are collected here from article PMC10074561.

The term Kd denotes a measure of binding affinity in units of concentration.

In assay [1] the target is TASK3 (UniProt Q9NPC2). Put plainly: fluorescence polarisation; 2D fluorescence anisotropy titrations of 14-3-3 at varying concentrations of fusicoccin-A, 10 nM labelled TASK3; fitted here with a ternary equilibrium model, KD,I fixed at 4.05 μM; data (Dataset S2) published before. On the technique in general: In fluorescence polarisation assays a small probe gives low polarisation when free and higher when bound to something large.

The target in assay [2] is TASK3 (UniProt Q9NPC2). As to the kind of experiment: fluorescence polarisation; fluorescence anisotropy; 14-3-3 titrated in the presence of 10 nM labelled TASK3; KD fitted here with a one-to-one equilibrium model; data (Dataset S1) from earlier work.

Sequence of UniProt Q9NPC2 (Q9NPC2 whole entry): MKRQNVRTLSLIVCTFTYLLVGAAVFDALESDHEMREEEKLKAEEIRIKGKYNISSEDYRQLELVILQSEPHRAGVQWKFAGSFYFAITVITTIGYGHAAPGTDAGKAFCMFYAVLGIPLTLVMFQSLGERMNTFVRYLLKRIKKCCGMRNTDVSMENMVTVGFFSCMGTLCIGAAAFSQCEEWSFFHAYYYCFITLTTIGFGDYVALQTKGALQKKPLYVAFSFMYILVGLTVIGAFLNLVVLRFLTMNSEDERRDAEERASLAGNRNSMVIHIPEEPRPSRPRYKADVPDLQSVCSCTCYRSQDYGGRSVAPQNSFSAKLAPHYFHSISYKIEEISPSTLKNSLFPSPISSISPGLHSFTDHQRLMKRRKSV

For the substance “14-3-3 protein (from UniProt P31947 1-248) (natural protein)”, the cooperativity factor α with fusicoccin-A with TASK3 [1] was 1340. Also, the Kd with TASK3 [2] stood at 4.05 µM.
